For data set [1], the system named is db/db mice. The experiment in a line: Heart and gastrocnemius muscle weight in db/db mice (Example 1). To be noted: day 28; NT-4/5 20 mg/kg s.c., Rosiglitazone 3 mg/kg p.o.
Experimental: Test animals: 24 female 10-12 weeks old db/db mice (C57BL/Ks J Rj-db/db, Janvier, France), weighing in the target range of 40-50 g, were used in this study. These mice were housed in a temperature (19.5-24.5° C.) and relative humidity (45-65%) controlled room with a 12-hour light/dark cycle, with ad libitum access to filtered tap-water and irradiated pelleted laboratory chow (SAFE, France) throughout the study. Upon receipt at animal facilities, they were housed 4 per cage covered with filtered caps and at least a 5-day acclimation period was observed.
The mice were divided into three groups of 8 mice each (groups 1-3). Each group was treated with vehicle (PBS) subcutaneously (s.c.), 3 mg/kg Rosiglitazone orally (p.o.), or 20 mg/kg NT-4/5 subcutaneously (s.c.). From day 1 to day 5 (T1-T5) and then from day 8 to day 12 (T8-T12), the mice in groups 2 and 3 were dosed once daily for 5 consecutive days, with a volume of 10 ml/kg.
Heart weight and gastrocnemius weight were measured on day 28 for vehicle, Rosiglitazone, and NT-4/5 treated mice.
Data set [2] concerns db/db mice. The experiment in a line: Dose response of NT-4/5 on food intake of db/db mice (Example 2). It counts as in vivo. The procedure:
Db/db mice maintained as described in Example 1 were divided into five groups (groups 1-5). Group 1 (7 mice) were administered with vehicle (PBS). Group 2 (7 mice), group 3 (8 mice), group 4 (8 mice), group 5 (8 mice) were each administered with NT-4/5 at the doses of 2 mg/kg, 5 mg/kg, 10 mg/kg, and 20 mg/kg, respectively. Both the vehicle and NT-4/5 were administered to each group of the mice subcutaneously once daily for five days. One day before beginning the treatment (T0), blood samples were collected from the mice as described previously for the determination of baseline levels of serum biomarkers (glucose, triglyceride, and cholesterol). Similarly, at day 6 (T6), blood samples were collected for the determination of serum biomarker levels. The blood samples were treated in the same manner as described in Example 1.
[…] Individual body weights were also measured daily from 6 days before the treatment (T-5) to day 7 (T7).

Data set [3] deals with NONcNZO-10 polygenic obese mice. The experiment in a line: Body weight in NONcNZO-10 mice (Example 4, Table 19). It counts as in vivo. An excerpt: (§1) Test animals: 40 male NONcNZO-10 polygenic obese mice obtained from Jackson Laboratory at 10 weeks of age weighing in the range of 26-32 g were used in this study.
(§2) Administration of NT-4/5: NT-4/5 was produced in E. coli as descried in U.S. Pat. No. 6,184,360. The mice were divided into 6 groups of equivalent body weight and baseline blood glucose distribution (6-7 mice per group). […] A “paired-fed” control group received daily injection of vehicle, but were only fed with the same amount of food the 3 mg/kg group consumed the previous day. On the day when the treatment started (day 1), a baseline blood samples were collected for measuring glucose and triglyceride. Triglyceride level was measured on day 10. At the end of the study (day 12), a terminal blood sample was collected to determine glucose, triglyceride, electrolytes (Na, K, Cl), testoterone, corticosterone, thyroid hormone (total T4) and thyroid stimulating hormone (TSH) levels. Electrolytes, free testosterone, T4 and TSH levels of serum samples were measured by AniLytics (Gaithesburg, M.D) according to the standard protocols employed by the vendor. Other analytes were measured as described above. Body weight, food intake were monitored 5 days per week through out the entire study. Daily water intake was measured from day 5 through day 7.

For data set [4] the test system is unchanged. The data set is described as follows: Food intake in NONcNZO-10 mice (Example 4, Table 20). It counts as in vivo.
Source text: as §1, §2

The subject of the next data set is DIO mice. The data set is described as follows: Respiratory quotient and energy expenditure by indirect calorimetry (CCMS) in DIO mice (Example 9). It is filed as in vivo. An excerpt: Test animals: Mice with diet induced obesity (DIO) were used in this study. 29 male C57BL/6J mice were weaned at 4 weeks of age. Immediately after weaning they were put on 58% high fat diet (D12331i, Research Diet) through out the study. The DIO mice at 13 weeks of age weighing in the range of 28-40 g were used in this study.
Administration of NT-4/5: NT-4/5 was obtained from Genentech Inc. or produced as described in U.S. Pat. No. 6,184,360. The mice were divided into 2 groups of equivalent body weight distribution (8 mice per group). The mice were acclimated individually in the Comprehensive Cage Monitoring System (CCMS, Columbus Instruments) for 2 days, in preparation for the indirect calorimetry, before the treatment started. Each group received 5 daily subcutaneous doses of either vehicle or 10 mg/kg of NT-4/5, respectively. Body weight and food intake were monitored 5 days per week through out the entire study. […] The body composition, i.e. percent lean body mass, fat content, and bone density was determined the day both before treatment started (day 0) and the final day of treatment (day 5) with a PIXImus Mouse Densitometer (GE Lunar Medical Systems, Madison, Wis.) using software version 1.46. […]

The test system of a further data set is lean C57BL/6 mice. The experiment in a line: Body weight, food intake, nonfasting blood glucose, triglyceride in normal lean C57BL/6 mice (Example 11). It counts as in vivo. To be noted: for weight loss as compared to the vehicle control group: female C57BL/6 mice, day 2. The procedure:
Test animals: Mice with normal diet were used in this study.
Administration of NT-4/5: NT-4/5 was produced as described in U.S. Pat. No. 6,184,360. The mice were divided into 5 groups of equivalent baseline body weight, food intake and nonfasting blood glucose level distribution (8 mice per group). Each group received 4 daily subcutaneous doses of vehicle, 1 mg/kg, 2 mg/kg, 5 mg/kg or 10 mg/kg of NT-4/5, respectively, from day 1 to day 4. Body weight and food intake were monitored on daily basis. The non-fasting blood glucose was measure as previously described once a week (day 1 and day 8).

Setting [5] is: lean male mice, 1, 2, 5 and 10 mg/kg s.c. daily, dose dependent.

Take `CN(CCOc1ccc(CC2SC(=O)NC2=O)cc1)c1ccccn1` (stereo not drawn) [Rosiglitazone, reference compound]: in the data set on db/db mice [1], the Gastrocnemius weight is listed as 0.074 g and the Heart weight is on record as 0.114 g.

B1: NT-4/5: mature human neurotrophin-4/5 (SEQ ID NO:1), obtained from Genentech or produced in E. coli (protein, listed as Homo sapiens)
chain: GVSETAPASRRGELAVCDAVSGWVTDRRTAVDLRGREVEVLGEVPAAGGSPLRQYFFETRCKADNAEEGGPGAGGGGCRGVDRRHWVSECKAKQSYVRALTADAQGRVGWRWIRIDTACVCTLLSRTGRA
On to B1, for which the “food intake as compared to vehicle” value in the data set on db/db mice [2] (2, 5, 10 and 20 mg/kg) is given as “significantly decreased food intake”. The food intake in the data set on db/db mice [2] (Day 0, 2 mg/kg s.c. daily) is reported as 7.79 g; in the data set on db/db mice [2] (Day 0, 5 mg/kg s.c. daily), 7.26 g; in the data set on db/db mice [2] (Day 0, 10 mg/kg s.c. daily) it was 7.48 g; in the data set with db/db mice [2] (Day 0, 20 mg/kg s.c. daily) it was 7.46 g; in the data set with db/db mice [2] (Day 1, 2 mg/kg s.c. daily), 5.20 g; with db/db mice [2] (Day 1, 5 mg/kg s.c. daily) it was 4.55 g. Further, the food intake in the data set on db/db mice [2] (Day 1, 10 mg/kg s.c. daily) is 4.13 g; in the data set with db/db mice [2] (Day 1, 20 mg/kg s.c. daily), 4.11 g; in the data set with db/db mice [2] (Day 2, 2 mg/kg s.c. daily), 5.87 g; with db/db mice [2] (Day 2, 5 mg/kg s.c. daily) it was 4.86 g; in the data set with db/db mice [2] (Day 2, 10 mg/kg s.c. daily), 5.18 g; in the data set with db/db mice [2] (Day 2, 20 mg/kg s.c. daily), 4.66 g. Moreover, the food intake in the data set with db/db mice [2] (Day 3, 2 mg/kg s.c. daily) was determined as 3.89 g; in the data set on db/db mice [2] (Day 3, 5 mg/kg s.c. daily), 3.99 g; in the data set with db/db mice [2] (Day 3, 10 mg/kg s.c. daily) it was 3.85 g; with db/db mice [2] (Day 3, 20 mg/kg s.c. daily), 3.39 g; in the data set on db/db mice [2] (Day 4, 2 mg/kg s.c. daily), 4.79 g; in the data set with db/db mice [2] (Day 4, 5 mg/kg s.c. daily), 3.69 g. For the same molecule, the food intake with db/db mice [2] (Day 4, 10 mg/kg s.c. daily) is 4.00 g; in the data set on db/db mice [2] (Day 4, 20 mg/kg s.c. daily), 3.40 g; in the data set with db/db mice [2] (Day 5, 2 mg/kg s.c. daily), 4.19 g; in the data set on db/db mice [2] (Day 5, 5 mg/kg s.c. daily), 3.79 g; with db/db mice [2] (Day 5, 10 mg/kg s.c. daily), 3.60 g; with db/db mice [2] (Day 5, 20 mg/kg s.c. daily) it was 3.06 g. The food intake with db/db mice [2] (Day 6, 2 mg/kg s.c. daily) is given as 3.99 g; in the data set with db/db mice [2] (Day 6, 5 mg/kg s.c. daily), 3.00 g; in the data set on db/db mice [2] (Day 6, 10 mg/kg s.c. daily), 2.56 g; with db/db mice [2] (Day 6, 20 mg/kg s.c. daily), 1.71 g; in the data set with db/db mice [2] (Day 7, 2 mg/kg s.c. daily) it was 4.13 g; with db/db mice [2] (Day 7, 5 mg/kg s.c. daily), 3.48 g. Besides, the food intake in the data set on db/db mice [2] (Day 7, 10 mg/kg s.c. daily) is 3.21 g; with db/db mice [2] (Day 7, 20 mg/kg s.c. daily), 2.03 g; in data set [4] (3 mg/kg), “a significant reduction in food intake”; in data set [4] (dose dependent manner) it was “reduced”; with lean C57BL/6 mice (lean male mice, 1, 5 and 10 mg/kg s.c. daily, dose dependent), “significantly reduced food intake”. The results for the “body weight loss relative to the vehicle control” value in data set [3] (1 mg/kg) and in data set [3] (3 mg/kg) were “about 5%” and “about 10%”, respectively. Moreover, the “body weight” value was “reduced body weight” in data set [3] (dose dependent manner) and “significantly reduced the body weight” in the data set with lean C57BL/6 mice (setting [5]). The “respiratory quotient (RQ=Vco2/Vo2)” value in the data set on DIO mice (10 mg/kg s.c. daily, P=0.0025) was “reduced the respiratory quotient”. The “estimated cumulative energy expenditure” value with DIO mice (day 1 to day 5, 10 mg/kg, vs vehicle) was “No change”. The “weight loss as compared to the vehicle control group” value in the data set with lean C57BL/6 mice (5 mg/kg) is “about 8%”; in the data set on lean C57BL/6 mice (10 mg/kg), “about 11%”. Also, the “blood triglyceride” value with lean C57BL/6 mice (setting [5]) is “significantly reduced blood triglyceride”. Besides, the “nonfasting blood glucose” value in the data set with lean C57BL/6 mice (lean male mice, 2, 5 and 10 mg/kg s.c. daily, dose dependent) is listed as “significantly reduced nonfasting blood glucose”.
